Experimental data taken from patent publication US12018068B2, “Anti-O1 antibodies and uses thereof” (priority 2016, dated 2024).

B1: 54H7: mouse hybridoma anti-O1 antigen antibody (Ms IgG3), VH SEQ ID NO:47, VL SEQ ID NO:48 (antibody, V domains shown)
VH: QVHLQQPGSELVRPGASVTLSCKASGYTFTNYWMQWVKQRPGQGLEWIGNIYPGSGNTNYDEKFRSKATLTVDTSSSTAYMHLTSLTSEDSAVYYCTRNWNFDYWGQGTTLTVSS
VL: DIQMTQSPSSLSASLGERVSLTCRASQDIGSSLNWLQQEPDGTIKRLIYATSSLDSGVPKRFSGSRSGSEYSLTISSLEAEDFVDYYCLQHTDSPYTFGGGTKLELK
modifications: 54H7 VH; 54H7 VL Amino Acid Sequence
B2: KPE33: human anti-K. pneumoniae O1 antigen antibody, VH SEQ ID NO:8, VL SEQ ID NO:9, isolated as IgG2 from donor #262 (antibody, V domains shown)
VH: EVQLVESGGALVQPGGSLRLSCAVSGFIFDDYAIHWVRRAPGKGLEWVSGIAWKSGATNYADSVKGRFAISRDNSKKSMYLQMNSLGTEDTALYYCTRRRASGDDTFYYFDYWGQGTLVTVSS
VL: EIVLTQSPATLSLSPGERATLSCRASQNVNTNLAWYQQRPGQSPRLLIYDASTRAAGLPARFSGSGSGTDFTLTISSLEPEDFAVYYCQQCTNWRYTFGQGTKLEIK
modifications: KPE33 VH Amino Acid Sequence; KPE33 VL Amino Acid Sequence

How the values were obtained:
LPS (O1) = experiment: LPS neutralization assay, RAW264.7-lux NF-κB luciferase reporter; type: cell-based, murine
Protocol: LPS neutralization was assayed by utilizing a murine RAW264.7 macrophage cell line carrying a firefly luciferase reporter gene under the control of an NF-κB-responsive promoter (RAW264.7-lux). Serially diluted antibody stocks were mixed with LPS in a 1:1 ratio and incubated at 4° C. for 1 hr. Antibody/LPS mixture was then diluted 1:10 into assay plates containing pre-seeded RAW264.7-lux cells (5e3 cells/well), which were then placed at 37° C./5% CO2 for 2.5 hours. Following incubations, Steady Glo (Promega) was then added to each well and incubated for another 20 min protected from light. The relative light units (RLUs) were then measured using an Envision Multilabel plate reader (Perkin Elmer). The percentage of inhibition was determined by comparing RLU derived from assays with no antibodies to RLU obtained from anti-K. pneumoniae mAbs and a negative control mAb. Activation of TLR4 receptors by bacterial LPS leads to downstream activation of the NF-κB transcriptional regulator. A decrease in induction of NF-κB-responsive luciferase activity was used to quantify LPS neutralization activity by LPS mAbs.

[1] = test system: K. pneumoniae strain Kp4211 lux; experiment: high throughput serum bactericidal assay (SBA), complement-dependent killing; type: cell-based, Klebsiella pneumoniae; settings: for complement-dependent killing in SBA: FIG. 1B
Protocol: Peripheral blood mononuclear cells (PBMC) and sera were separated from buffy coats from healthy blood donors (N=567). PMBC were stored in liquid nitrogen whereas the plasma was stored at 4° C. To identify Klebsiella pneumoniae immune donors, all the available sera were tested for binding to Kp43816 and Kp4211 (LPS-O1 serotype), as well as to the unencapsulated mutant strain Kp43816ΔcpsB and the double mutant Kp43816ΔcpsBΔwaaL. […] In addition, all available sera were tested for their bactericidal activity in the presence of complement using a high-throughput serum bactericidal assay (SBA assay). Overnight cultures of luminescent K. pneumoniae strain 4211 (lux) were diluted in Muller Hinton II media to make OD600 to be 0.003. Equal volume of sera, 4211 lux, and baby rabbit serum (Cedarlane) were mixed in 384 well plates and incubated at 37° C. for two hours with shaking (250 rpm). The relative light units (RLUs) were then measured using an Envision Multilabel plate reader (Perkin Elmer). The percentage of killing was determined by comparing RLU derived from assays with no antibodies to RLU obtained from human sera.
The susceptibility of the K. pneumoniae strain Kp4211 lux to serum and antibody dependent killing was measured by high throughput serum bactericidal assay (SBA). Overnight cultures of luminescent K. pneumoniae strain 4211 (lux) were diluted in Muller Hinton II media to make OD600 to be 0.003. Equal volume of antibodies, 4211 lux, and baby rabbit serum (Cedarlane) were mixed in 384 well plates and incubated at 37° C. for two hours with shaking (250 rpm). The relative light units (RLUs) were then measured using an Envision Multilabel plate reader (Perkin Elmer). The percentage of killing was determined by comparing RLU derived from assays with no antibodies to RLU obtained from anti-K. pneumoniae mAbs and a negative control mAb.

[2] = test system: K. pneumoniae capsule mutant strain 43816ΔcpsB Lux; experiment: bioluminescent opsonophagocytic killing (OPK) assay with HL-60 cells; type: cell-based, Klebsiella pneumoniae; settings: for induction of OPK killing: FIG. 1C
Protocol: (§1) PBMC donors were ranked based on their binding titers as well as their SBA and OPK activity. OPK assays were performed as described with modifications (Wang, Q. et al. Target-Agnostic Identification of Functional Monoclonal Antibodies Against Klebsiella pneumoniae Multimeric MrkA Fimbrial Subunit J Infect Dis. 2016 Jun. 1; 213(11):1800-8). Briefly, log phase cultures of luminescent K. pneumoniae capsule mutant strain 43816ΔcpsB (43816ΔcpsB Lux) were diluted to ˜2×10^6 cells/ml. Bacteria, diluted baby rabbit serum providing complement (Cedarlane, pre-absorbed with Kp43816ΔcpsB, 1:10), dimethylformamide (DMF) differentiated HL-60 cells, and sera were mixed in 384-well plates and incubated at 37° C. for two hours with shaking (250 rpm). The relative light units (RLUs) were then measured using an Envision Multilabel plate reader (Perkin Elmer). The percentage of killing was determined by comparing RLU derived from assays with no antibodies to RLU obtained from human sera.
as §1, with “OPK” for “PBMC donors were ranked based on their binding titers as well as their SBA and OPK activity. OPK”, “al., J. Infect.” for “al. Target-Agnostic Identification of Functional Monoclonal Antibodies Against Klebsiella pneumoniae Multimeric MrkA Fimbrial Subunit J Infect”, “213:1800-8 (2016)).” for “2016 Jun. 1; 213(11):1800-8).”, “antibodies” for “sera”, “anti-K. pneumoniae mAbs and a negative control mAb.” for “human sera.”

purified O1 LPS = experiment: ELISA binding to purified O1 LPS; set-up: species or system Klebsiella pneumoniae; settings: FIG. 1A
Protocol: Binding to purified O1 LPS was assayed by standard ELISA method. Briefly, ELISA plates (Nunc MaxiSorp) were coated with purified O1 LPS in PBS, pH 7.2, overnight at 4 C, followed by blocking the plates with PBS supplemented with 1% BSA (PBS-B). The coated plates were incubated with series dilutions of monoclonal antibodies for 1 h at room temperature. The plates were then washed with PBS containing 0.1% Tween-20 (PBS-T) before HRP-conjugated anti-human secondary antibodies were added for 1 hour followed by TMB TMB (3,3′,5,5′-Tetrametheylbenzidine) substrates. The absorbance of 450 nm was measured by microplate reader (Molecular Devices) and the data were plotted with Prism software.

[3] = test system: Kp1131115 wild type and Kp1131115ΔwbbYZ strain; experiment: FACS binding to Kp1131115 wild type and Kp1131115ΔwbbYZ; set-up: species or system Klebsiella pneumoniae; settings: Kp1131115ΔwbbYZ vs wild type
Text: Klebsiella pneumoniae wbbYZ gene locus encodes D-Galactan II domain in LPS structure, which defines O1 serotype over O2.

[4] = test system: γδ T cell recruitment, K. pneumoniae Kp8045 infection; experiment: flow cytometry of γδTCR+ T cells in lungs of infected mice; type: in vivo; settings: for early γδ T cell recruitment, prophylaxis: 1e4 CFU Kp8045, FIG. 14A; for γδ T cell recruitment, treatment 1 hour post infection: 1e4 CFU Kp8045, FIG. 14B
Protocol: TLR4 signaling has been implicated in the recruitment and activation of γδ T cells, a key cell population in the innate immune defense of the mucosa. In order to examine the effect of LPS-neutralizing and LPS-non-neutralizing anti-O1 antibodies on γδ T cell recruitment, the percent of γδTCR^+ T cells was measured in the lungs of mice treated with anti-O1 antibodies and infected with K. pneumoniae (1e4 CFU Kp8045).

[5] = test system: K. pneumoniae (1e4 CFU Kp8045); experiment: survival of wild type and IL-17A−/− mice after lethal K. pneumoniae infection; type: in vivo, Klebsiella pneumoniae; settings: prophylactic treatment
Text: γδ T cells are major producers of IL-17, which activates key antimicrobial pathways and the phagocytic function of neutrophils. […] Wild type and IL-17A−/− mice were prophylactically treated with c-IgG, 54H7, or KPE33 and infected with a lethal number of K. pneumoniae.

Row | Molecule | LPS Neut (O1) IC50 (LPS (O1)) | LPS neutralization (LPS (O1)) | SBA Kp4211lux IC50 [1] | complement-dependent killing in SBA [1] | D Capsule OPK IC50 [2] | induction of OPK killing [2] | binding to purified O1 LPS (purified O1 LPS) | effect of wbbYZ gene knockout on binding [3] | early γδ T cell recruitment, prophylaxis [4] | γδ T cell recruitment, treatment 1 hour post infection [4] | survival of IL-17A−/− mice compared to wild type mice [5] | complement-dependent killing (SBA) in primary screening ([1]; strain Kp4211 (LPS-O1))
1 | B1 | <0.1 ng/mL | neutralized LPS | 5.2 ng/mL | kill K. pneumoniae via complement-dependent killing | 2.5 ng/mL | induced OPK killing | bound to purified O1 LPS | completely abolished the binding | inhibited | did not inhibit recruitment | No difference in survival | 
2 | B2 |  | did not | 64 ng/mL | kill K. pneumoniae via complement-dependent killing | 2.5 ng/mL | induced OPK killing | bound to purified O1 LPS | completely abolished the binding | not | did not inhibit recruitment | significant reduction in survival | mediate complement-dependent killing
